Common to all, as to test: two-hybrid library CCNG1;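 further: natural log of median RNA to DNA barcode read ratio; higher means stronger binding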
Assay [1] addresses T1, 4H932-bH.
T1 chain: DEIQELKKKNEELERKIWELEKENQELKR

For assay [2], the target named is T2, 4H3041-bH.
T2 chain: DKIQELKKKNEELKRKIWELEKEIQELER

The target in assay [3] is T3, 4H796-bH.
T3 chain: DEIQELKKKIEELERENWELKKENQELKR

The target of assay [4] is T4, 4H56-bH.
T4 chain: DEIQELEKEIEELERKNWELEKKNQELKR

The target in assay [5] is T5, 4H2760-bH.
T5 chain: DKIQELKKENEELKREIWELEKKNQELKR

The target in assay [6] is T6, 4H2859-bH.
T6 chain: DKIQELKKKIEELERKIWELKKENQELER

The target of assay [7] is T7, 4H3364-bH.
T7 chain: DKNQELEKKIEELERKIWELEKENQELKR

In assay [8] the target is T8, 4H4073-bA.
T8 chain: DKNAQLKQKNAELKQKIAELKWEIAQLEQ

For assay [9], the target named is T9, 4H3297-bH.
T9 chain: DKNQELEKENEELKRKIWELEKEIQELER

Assay [10] addresses T10, 4H40-bH.
T10 chain: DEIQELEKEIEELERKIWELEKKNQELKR

Assay [11] has as its target T11, 4H349-bH.
T11 chain: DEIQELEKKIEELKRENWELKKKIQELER

Assay [12] concerns the target T12, O16-bN.
T12 chain: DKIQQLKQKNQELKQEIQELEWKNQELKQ

The target of assay [13] is T13, 4H949-bH.
T13 chain: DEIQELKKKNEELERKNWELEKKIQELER

The target in assay [14] is T14, 4H3381-bH.
T14 chain: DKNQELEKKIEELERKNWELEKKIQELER

Assay [15] has as its target T15, 4H2931-bH.
T15 chain: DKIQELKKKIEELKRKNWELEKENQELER

Assay [16] concerns the target T16, 4H730-bH.
T16 chain: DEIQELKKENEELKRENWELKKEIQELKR

Assay [17] addresses T17, 4H3974-bA.
T17 chain: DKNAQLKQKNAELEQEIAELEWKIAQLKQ

In assay [18] the target is T18, 4H3638-bA.
T18 chain: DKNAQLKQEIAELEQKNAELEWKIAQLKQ

In assay [19] the target is T19, 4H570-bA.
T19 chain: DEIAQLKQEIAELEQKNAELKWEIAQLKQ

Assay [20] has as its target T20, 4H3631-bA.
T20 chain: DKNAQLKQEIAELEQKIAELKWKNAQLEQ

The target of assay [21] is T21, 4H906-bA.
T21 chain: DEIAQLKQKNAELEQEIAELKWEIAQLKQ

Assay [22] addresses T22, 4H584-bA.
T22 chain: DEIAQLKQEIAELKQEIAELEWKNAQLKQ

The target in assay [23] is T23, 4H3817-bA.
T23 chain: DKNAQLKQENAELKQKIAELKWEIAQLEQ

The target in assay [24] is T24, 4H619-bA.
T24 chain: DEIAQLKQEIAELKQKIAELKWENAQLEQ

Assay [25] concerns the target T25, 4H3414-bA.
T25 chain: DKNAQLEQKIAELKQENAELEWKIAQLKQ

Assay [26] concerns the target T26, 4H850-bA.
T26 chain: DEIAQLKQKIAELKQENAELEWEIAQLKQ

For assay [27], the target named is T27, 4H264-bH.
T27 chain: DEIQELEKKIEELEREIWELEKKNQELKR

In assay [28] the target is T28, O8-bA.
T28 chain: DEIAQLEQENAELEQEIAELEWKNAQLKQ

The target in assay [29] is T29, 4H3010-bA.
T29 chain: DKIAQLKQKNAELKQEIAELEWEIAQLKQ

Assay [30] concerns the target T30, 4H568-bA.
T30 chain: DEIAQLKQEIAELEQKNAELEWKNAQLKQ

For assay [31], the target named is T31, 4H3926-bA.
T31 chain: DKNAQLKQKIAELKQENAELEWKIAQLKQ

For assay [32], the target named is T32, 4H3855-bA.
T32 chain: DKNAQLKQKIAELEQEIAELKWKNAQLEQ

Assay [33] addresses T33, 4H953-bA.
T33 chain: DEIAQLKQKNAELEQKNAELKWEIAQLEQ

Assay [34] deals with T34, 4H797-bA.
T34 chain: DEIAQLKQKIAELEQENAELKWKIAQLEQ

The target in assay [35] is T35, 4H457-bA.
T35 chain: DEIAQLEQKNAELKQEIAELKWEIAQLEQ

Assay [36] addresses T36, 4H72-bA.
T36 chain: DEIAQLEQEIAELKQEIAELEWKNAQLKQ

Assay [37] deals with T37, 4H3112-bA.
T37 chain: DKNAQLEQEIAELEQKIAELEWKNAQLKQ

Assay [38] addresses T38, 4H968-bA.
T38 chain: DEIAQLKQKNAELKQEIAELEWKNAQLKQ

Assay [39] has as its target T39, 4H454-bA.
T39 chain: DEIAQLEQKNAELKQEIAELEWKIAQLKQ

For assay [40], the target named is T40, 4H3427-bA.
T40 chain: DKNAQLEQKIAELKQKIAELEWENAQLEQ

For assay [41], the target named is T41, 4H3185-bA.
T41 chain: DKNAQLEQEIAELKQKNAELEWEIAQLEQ

The target of assay [42] is T42, 4H331-bA.
T42 chain: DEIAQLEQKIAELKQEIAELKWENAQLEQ

For assay [43], the target named is T43, 4H346-bA.
T43 chain: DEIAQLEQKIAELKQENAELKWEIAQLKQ

In assay [44] the target is T44, 4H3782-bA.
T44 chain: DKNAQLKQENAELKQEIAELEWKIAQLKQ

The target in assay [45] is T45, 4H3354-bA.
T45 chain: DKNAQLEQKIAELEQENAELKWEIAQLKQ

The target in assay [46] is T46, 4H918-bA.
T46 chain: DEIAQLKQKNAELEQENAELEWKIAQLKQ

In assay [47] the target is T47, 4H883-bA.
T47 chain: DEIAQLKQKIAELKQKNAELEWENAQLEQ

For assay [48], the target named is T48, 4H855-bA.
T48 chain: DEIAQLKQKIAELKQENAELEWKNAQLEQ

Assay [49] has as its target T49, 4H780-bA.
T49 chain: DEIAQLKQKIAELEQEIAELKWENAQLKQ

Assay [50] deals with T50, 4H338-bA.
T50 chain: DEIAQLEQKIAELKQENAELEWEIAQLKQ

For assay [51], the target named is T51, 4H754-bA.
T51 chain: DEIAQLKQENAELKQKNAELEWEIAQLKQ

The target in assay [52] is T52, 4H607-bA.
T52 chain: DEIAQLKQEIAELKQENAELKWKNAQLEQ

Assay [53] has as its target T53, 4H717-bA.
T53 chain: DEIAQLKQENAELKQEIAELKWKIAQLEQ

In assay [54] the target is T54, 4H575-bA.
T54 chain: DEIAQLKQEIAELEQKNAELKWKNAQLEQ

Assay [55] addresses T55, 4H687-bA.
T55 chain: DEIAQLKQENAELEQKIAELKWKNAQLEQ

Assay [56] has as its target T56, 4H967-bA.
T56 chain: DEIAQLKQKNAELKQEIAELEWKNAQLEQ

Assay [57] deals with T57, 4H908-bA.
T57 chain: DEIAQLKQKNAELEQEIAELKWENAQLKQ

For assay [58], the target named is T58, 4H683-bA.
T58 chain: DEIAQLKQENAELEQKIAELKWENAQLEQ

Assay [59] deals with T59, 4H4001-bA.
T59 chain: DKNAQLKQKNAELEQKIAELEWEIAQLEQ

In assay [60] the target is T60, O7-bH.
T60 chain: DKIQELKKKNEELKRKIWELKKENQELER

In assay [61] the target is T61, O8-bH.
T61 chain: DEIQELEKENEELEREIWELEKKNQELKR

Assay [62] addresses T62, O4-bH.
T62 chain: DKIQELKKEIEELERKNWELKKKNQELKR

In assay [63] the target is T63, O6-bH.
T63 chain: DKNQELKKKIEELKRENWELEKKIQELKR

For assay [64], the target named is T64, O5-bH.
T64 chain: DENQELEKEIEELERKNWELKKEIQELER

Assay [65] addresses T65, O9-bH.
T65 chain: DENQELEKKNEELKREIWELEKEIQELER

For the molecule DKIQELKKENEELKREIWELEKKNQELKR [4H2760-bH], the interaction score in assay [1] was -1.86; in assay [2], 0.73; in assay [3], 0.41; in assay [4], -1.85; in assay [5] it was 1.46; in assay [6], 0.64. The interaction score in assay [7] was 0.427; in [8], -0.277; in [9], 1.12; in assay [10], -1.45; in assay [11] it was 0.171; in assay [12], 0.693. The interaction score is -0.189 in assay [13], 0.571 in [14], -0.365 in assay [15] and -0.92 in [16].
For DKNAQLEQKIAELKQENAELEWKIAQLKQ [4H3414-bA], the interaction score in assay [17] is -0.77; in [18], 1.02; in assay [19], 0.386; in assay [20], 0.00557; in assay [21], -0.43; in assay [22], -0.456. The interaction score in [23] was 0.381; in assay [24] it was -1.25; in [25], 0.915; in assay [26], -0.866.
Take DEIQELEKKIEELEREIWELEKKNQELKR [4H264-bH]: the interaction score in [1] was -0.203; in assay [2], 1.23; in assay [3], -0.303; in assay [4], -0.538; in assay [5], 0.562; in [27], 0.678. The interaction score in assay [6] came to 1.8; in [7], 0.996; in [9], 1.11; in assay [28], 0.091; in [29], 1.67; in assay [11], 0.113. Besides, the interaction score was -0.764 in assay [13], 1.06 in assay [14], 0.678 in assay [15] and 0.131 in assay [16].
DKNAQLEQEIAELEQKIAELEWKNAQLKQ [4H3112-bA]: the interaction score in [30] is -1.31; in assay [31], -0.342; in [32] it was -0.227; in assay [33], -0.984; in assay [34] it was 0.364; in assay [35], -0.509. Moreover, the interaction score is -0.233 in [36]; 1.17 in [37]; -1.09 in assay [38]; -1.72 in assay [39]; 1.55 in assay [40]; 0.447 in assay [41]. The interaction score in assay [42] is 0.496; in assay [43], -0.0408; in assay [44] it was -0.731; in assay [45], 0.000615; in assay [8], 1.32; in assay [46], -1.88. The interaction score was 0.791 in assay [47]; 1.01 in assay [48]; -0.567 in [49]; -0.842 in [50]; -0.483 in [51]; -0.643 in assay [52]. For the same molecule, the interaction score in assay [53] is 0.267; in [54] it was -0.587; in assay [55] it was -1.13; in assay [56], -0.715; in [57], 0.0545; in assay [58], -0.379. Further, the interaction score in assay [59] is -0.41.
As for DKIQELKKEIEELERKNWELKKKNQELKR [O4-bH], the interaction score in assay [60] is 0.376; in assay [61], 1.07; in assay [62] it was -1.04; in assay [63], 0.0257; in assay [64], -1.47; in [65], -2.1.

The values above are taken from publication PMC10397247.
